Experimental findings from patent publication US20030148462A1, “Dual inhibition of sister chromatid separation at metaphase” (President and fellows of Harvard College, priority 2001, published 2003) are described below.

In assay [1] the test system is sister chromatid separation and segregation in Xenopus egg extracts. Briefly: Anaphase and mitotic exit in CSF-arrested Xenopus egg extracts with sperm nuclei. To be noted: added 10 minutes before Ca2+.
The next assay deals with T1, separase (Homo sapiens, UniProt Q14674).
T1 construct: Full-length human separase was PCR-amplified from a human fetal thymus cDNA library; made in house
T1 sequence (Q14674 1-1486): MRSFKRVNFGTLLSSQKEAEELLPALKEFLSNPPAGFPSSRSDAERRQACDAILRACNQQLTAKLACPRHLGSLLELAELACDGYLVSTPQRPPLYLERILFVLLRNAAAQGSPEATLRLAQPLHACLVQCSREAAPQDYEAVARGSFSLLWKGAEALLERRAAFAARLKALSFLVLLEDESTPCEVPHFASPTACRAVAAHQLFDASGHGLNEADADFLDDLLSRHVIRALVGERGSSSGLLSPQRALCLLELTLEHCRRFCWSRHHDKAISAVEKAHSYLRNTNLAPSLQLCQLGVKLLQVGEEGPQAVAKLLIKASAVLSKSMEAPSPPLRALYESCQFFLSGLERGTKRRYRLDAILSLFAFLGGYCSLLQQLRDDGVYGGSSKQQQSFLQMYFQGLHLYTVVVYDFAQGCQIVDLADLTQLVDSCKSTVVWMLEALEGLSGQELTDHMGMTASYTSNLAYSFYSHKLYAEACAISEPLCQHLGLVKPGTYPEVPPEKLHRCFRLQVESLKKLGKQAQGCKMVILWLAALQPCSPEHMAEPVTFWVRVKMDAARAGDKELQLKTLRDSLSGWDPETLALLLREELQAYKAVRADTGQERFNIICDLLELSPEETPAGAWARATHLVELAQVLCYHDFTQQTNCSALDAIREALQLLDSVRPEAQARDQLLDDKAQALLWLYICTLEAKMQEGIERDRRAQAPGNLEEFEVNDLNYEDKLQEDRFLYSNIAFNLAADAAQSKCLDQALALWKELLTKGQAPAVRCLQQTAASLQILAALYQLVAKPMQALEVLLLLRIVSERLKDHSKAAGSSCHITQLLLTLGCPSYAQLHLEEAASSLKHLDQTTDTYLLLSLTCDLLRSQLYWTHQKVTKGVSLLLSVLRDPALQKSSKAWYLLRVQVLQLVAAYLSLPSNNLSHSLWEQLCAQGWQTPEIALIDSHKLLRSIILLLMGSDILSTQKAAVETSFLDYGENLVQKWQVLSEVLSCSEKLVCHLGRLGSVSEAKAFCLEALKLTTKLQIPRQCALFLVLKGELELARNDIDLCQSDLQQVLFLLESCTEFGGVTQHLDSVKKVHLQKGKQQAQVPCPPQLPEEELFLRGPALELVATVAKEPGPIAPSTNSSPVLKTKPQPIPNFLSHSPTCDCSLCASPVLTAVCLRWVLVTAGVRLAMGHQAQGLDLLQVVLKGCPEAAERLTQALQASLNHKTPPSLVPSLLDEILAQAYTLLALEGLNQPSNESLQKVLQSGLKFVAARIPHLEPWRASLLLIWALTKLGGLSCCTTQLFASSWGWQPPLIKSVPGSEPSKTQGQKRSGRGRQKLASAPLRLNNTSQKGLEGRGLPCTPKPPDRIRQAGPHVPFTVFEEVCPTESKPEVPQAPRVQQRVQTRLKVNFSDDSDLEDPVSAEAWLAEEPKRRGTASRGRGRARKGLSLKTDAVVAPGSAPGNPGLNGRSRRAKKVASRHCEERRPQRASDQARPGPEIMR
T1 sequence (Q14674 1536-2120): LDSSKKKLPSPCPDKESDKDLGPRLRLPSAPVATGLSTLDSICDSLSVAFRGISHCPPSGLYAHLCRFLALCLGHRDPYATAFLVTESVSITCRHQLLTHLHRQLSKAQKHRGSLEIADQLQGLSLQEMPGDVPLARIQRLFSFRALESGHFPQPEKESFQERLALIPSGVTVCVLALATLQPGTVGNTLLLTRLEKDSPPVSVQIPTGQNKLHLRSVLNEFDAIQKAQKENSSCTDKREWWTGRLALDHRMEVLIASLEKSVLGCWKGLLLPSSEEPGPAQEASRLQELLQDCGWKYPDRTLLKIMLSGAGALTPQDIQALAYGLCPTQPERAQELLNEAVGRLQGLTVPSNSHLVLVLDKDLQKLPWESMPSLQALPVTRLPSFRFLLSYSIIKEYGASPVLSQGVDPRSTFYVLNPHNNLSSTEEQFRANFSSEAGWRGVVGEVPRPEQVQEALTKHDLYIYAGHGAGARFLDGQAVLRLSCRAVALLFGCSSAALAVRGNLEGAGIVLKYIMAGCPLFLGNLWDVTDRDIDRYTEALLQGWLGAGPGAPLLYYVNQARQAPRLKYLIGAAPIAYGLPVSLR
Briefly: Re-inhibition of pre-activated separase by recombinant securin (cohesin hSCC1 cleavage). It is filed as biochemical. The settings on record: separase 4 nM, one hour on ice. As for the experimental part:
FIGS. 7A-7C depict the independent inhibition of separase activity by phosphorylation of separase and by binding of securin. (A) depicts a Western blot (upper panel) and cohesin^hSCC1 cleavage activity using isolated chromosomes as substrate (lower panel). Lane 2: Consecutive treatment of separase with high-Δ90 extract twice. (B) depicts separase that had been pre-activated in low-Δ90 extract that was eluted and incubated with recombinant securin (lanes 2 and 3) or reference buffer (lane 1) for one hour on ice. Subsequently, its cleavage activity towards in vitro translated ^35S-cohesin^hSCC1 was tested (upper panel). The separase concentration in each reaction was 4 nM, as estimated by Coomassie staining. To compare wild type separase with PM-2/4 mutant separase in its ability to bind securin the same experiment was repeated with PM-2/4 (lower panel). Roughly equal separase concentrations in both cases were assured by comparative immunoblotting (see FIG. 4B, lanes 15 and 17). (C) depicts a model for the dual inhibition of separase in metaphase and its activation at anaphase onset. PPase denotes an unknown protein phosphatase that is proposed to act on phosphorylated separase.
To determine whether securin can inhibit separase independent of the phosphorylation state of separase, and whether separase that has already been activated and has therefore cleaved itself be re-inhibited by either of the two inhibitory mechanisms, active separase was generated by treating a securin/separase complex with a low-Δ90 extract (L; FIG. 7) to degrade securin and dephosphorylate separase. […] Active separase on beads was then incubated with either recombinant securin or a high-Δ90 extract and assayed for its ability to cleave cohesin^hSCC1. […]

In assay [2] the target is T2, tagged human separase, wild type, with N-terminal ZZ-TEV4-tag (human, UniProt Q14674 1-2120).
T2 construct: It was therefore self-cleaved into about 175 and 55 kDa fragments and dephosphorylated; also called wild type separase; WT
Briefly: affinity-purified complex from transfected 293T cells.

Assay [3] concerns the target T3, tagged human separase, wild type, with three N-terminal HA tags (human, UniProt Q14674 1-2120).
T3 construct: also called WT; wild type separase; not shown: three HA tags fused to the amino terminus
Briefly: affinity isolation of tagged separase from metaphase-arrested transfected 293T cells, Western blot.

The target in assay [4] is T4, catalytically inactive human separase mutant (catalytic cysteine replaced by serine), with three N-terminal … (human, UniProt Q14674 1-2120).
T4 construct: also called CS; not shown: three HA tags fused to the amino terminus
Briefly: affinity isolation of tagged catalytically inactive separase (CS, lane 2) from transfected 293T cells, Western blot. For orientation: In western blotting, separated proteins are transferred to a membrane and probed.

For the molecule `CC[C@H](CO)Nc1nc(NCc2ccccc2)c2ncn(C(C)C)c2n1` [roscovitine], the “Rescue of anaphase (sister separation and segregation) blocked in high-Δ90 extract” value in assay [1] is recorded as “rescued both events with high efficiency”.

B1: human securin co-expressed with tagged separase in 293T cells (other, UniProt O95997 2-202, looked up)
chain: ATLIYVDKENGEPGTRVVAKDGLKLGSGPSIKALDGRSQVSTPRFGKTFDAPPALPKATRKALGTVNRATEKSVKTKGPLKQKQPSFSAKKMTEKTVKAKSSVPASDDAYPEIEKFFPFNPLDFESFDLPEEHQIAHLPLSGVPLMILDEERELEKLFQLGPPSPVKMPSPPWESNLLQSPSSILSTLDVELPPVCCDIDI
notes: also called associated securin
B1: the “Molar excess of securin sufficient to fully suppress cohesin hSCC1 cleavage” value with separase was approximately 2.5 fold molar excess. Also, the binding result in assay [2], in assay [3] and in assay [4] was “binds” throughout.
